A short description of the data set: protein stability index of a GFP-peptide fusion (GPS, HEK-293T) (PSI 1-6); higher = more stable. Particulars: c terminus: a fixed tail appended.

± gives the standard deviation.

The text below walks through data of the supplement of paper PMC10567573.
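Further: 24-mer peptide tiles fused after GFP, lentivirally expressed, FACS-sorted into six equal bins by GFP/DsRed ratio, decoded by Illumina sequencing, PSI is the read-weighted mean bin number.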

PQSPPSCRAPPPEARGIRAPPLPD [FCHO1]: the protein stability index (treatment: DMSO) is 4.92 ± 0.12 and the protein stability index (treatment: MLN4924 1 uM, 8 h) was 5.09 ± 0.24.
For LWEAEDRQNVPRKVPNHYIAIPEW [CPXM2], the protein stability index turned out to be 3 ± 0.31 (treatment: DMSO) and 3.02 ± 0.32 (treatment: MLN4924 1 uM, 8 h).
As for VLCGVVMDRSLVQDAPLSDCTETI [ADD1], the protein stability index amounted to 3.11 ± 0.27 (treatment: DMSO) and 2.99 ± 0.41 (treatment: MLN4924 1 uM, 8 h).
For the sequence NGGVVQVGELLPCKICGRTFFPVA [ZC2HC1A], the protein stability index stood at 2.42 ± 0.091 (treatment: DMSO) and 2.48 ± 0.47 (treatment: MLN4924 1 uM, 8 h).
On the same counts, the results for LDLKRQYDRVAQLDQLLHYRKKSA [CHGB] are 3.23 ± 0.26 and 3.63 ± 0.51.
In the case of EDHIDDAKYCGHLYGLGSGSSYVQ [CNOT7], the protein stability index worked out at 3.38 ± 0.16 (treatment: DMSO) and 3.41 ± 0.26 (treatment: MLN4924 1 uM, 8 h).
In the case of IQKNKLKLTREQEELEEALEVERQ [MNAT1], the protein stability index runs as follows: (treatment: DMSO) 5.23 ± 0.31; (treatment: MLN4924 1 uM, 8 h) 5.24 ± 0.17.
Take SEASIASNLQAMSTQMFQTKRCFR [SMG5]: the protein stability index runs as follows: (treatment: DMSO) 3.94 ± 0.13; (treatment: MLN4924 1 uM, 8 h) 4.08 ± 0.15.
As to GNRINVPMVRKRSVSNSTQTSSSS [DLC1], the protein stability index stood at 4.44 ± 0.13 (treatment: DMSO) and 4.65 ± 0.2 (treatment: MLN4924 1 uM, 8 h).
Consider AAEQAERSQSSIVPEEEQAANKGE [SMARCE1], for which the protein stability index worked out at 5.51 ± 0.3 (treatment: DMSO) and 5.54 ± 0.19 (treatment: MLN4924 1 uM, 8 h).
For the sequence AYIATQGPLAETTEDFWRMLWEHN [PTPRD], the protein stability index is 2.79 ± 0.46 (treatment: DMSO) and 2.8 ± 0.37 (treatment: MLN4924 1 uM, 8 h).
For ATKQLDFTRKTLAEKKQELDKLRN [SASS6] the same measures were 4.19 ± 0.26 and 4.43 ± 0.24.
Turning to KIRRGQFCIPEHISPKARCLIRSL [TRIB1], the protein stability index (treatment: DMSO) stood at 2.29 ± 0.48 and the protein stability index (treatment: MLN4924 1 uM, 8 h) is 2.29 ± 0.4.
For ILDTDEYVLKYMESNAAQYSPEAL [EFHC1] the same measures were 3.99 ± 0.31 and 3.96 ± 0.38.
As to VNLEEIPGEGLLISWAFTDRPDLS [C2CD2L], the protein stability index by setting is: (treatment: DMSO) 2.14 ± 0.15; (treatment: MLN4924 1 uM, 8 h) 2.08 ± 0.23.
In turn, KPGFLAPRDLPKHTPLISKSQSLR [RASAL3] had a protein stability index (treatment: DMSO) of 3.61 ± 0.2 and a protein stability index (treatment: MLN4924 1 uM, 8 h) of 3.8 ± 0.47.
For KMNPKLKTLLAIGGWNFSTQKFTD [CHIT1] the same measures were 2.37 ± 0.11 and 2.3 ± 0.39.
For the sequence FLYSHGVPRTLSPHQYHSVHGVGM [TBX5], the protein stability index is, setting by setting: (treatment: DMSO) 2.31 ± 0.38; (treatment: MLN4924 1 uM, 8 h) 2 ± 0.24.
Regarding QLDREAQARHQLVLTAVDGGTPAR [PCDHGC5], the protein stability index (treatment: DMSO) worked out at 4.59 ± 0.1 and the protein stability index (treatment: MLN4924 1 uM, 8 h) was 4.76 ± 0.18.
Regarding MEDSQETSPSSNNSSEELSSALHL [NECAB1], the protein stability index is 5.57 ± 0.18 (treatment: DMSO) and 5.55 ± 0.18 (treatment: MLN4924 1 uM, 8 h).
For WMEVLVLGVAQRSLPLQDELAFAE [ESRRA] the same measures were 3.47 ± 0.63 and 2.64 ± 0.97.
As to FVLDENDNAPAVLHPRPDWEHSAP [PCDHGC5], the protein stability index (treatment: DMSO) worked out at 3.33 ± 0.22 and the protein stability index (treatment: MLN4924 1 uM, 8 h) is 3.62 ± 0.31.
AVQLRHAWNPEDRSLNVFVKDDDR [SPSB4] came in with a protein stability index (treatment: DMSO) of 4.21 ± 0.25 and a protein stability index (treatment: MLN4924 1 uM, 8 h) of 4.24 ± 0.26.
Take EEETYKCLECGKSFCHGSSLKRHL [ZNF449]: the protein stability index worked out at 3.77 ± 0.5 (treatment: DMSO) and 3.78 ± 0.79 (treatment: MLN4924 1 uM, 8 h).
TSDVYSSDAAFGGILERYWLSSRA [MYORG]: the protein stability index stood at 2.62 ± 0.11 (treatment: DMSO) and 2.47 ± 0.092 (treatment: MLN4924 1 uM, 8 h).
On the same counts, the results for SYSTSEQAELSYKKVSEGPPLRLW [DLC1] are 2.73 ± 0.36 and 3.26 ± 0.18.
On the same counts, the results for TLKEAYVQKLVKVCTDTDRWSLIS [TENT5C] are 2.58 ± 0.4 and 2.4 ± 0.41.
For WYVCRTQGVEGDHCVTSDPATSPL [TRIM35], the protein stability index was found to be 3.15 ± 0.18 (treatment: DMSO) and 2.98 ± 0.29 (treatment: MLN4924 1 uM, 8 h).
In the case of DSEEEVIERANNVKYGLAATVWSS [ALDH8A1], the protein stability index was 4.03 ± 0.17 (treatment: DMSO) and 4.15 ± 0.17 (treatment: MLN4924 1 uM, 8 h).
